Target: beclin 1 (UniProt O88597)
Assay: anti-BCL2 IP, beclin 1 blot
Details: sites T69,S70,S84

Substance	binding against the reference (reference: wild-type MEFs, starved)	binding against the reference (reference: wild-type muscle, exercised)
BCL2 (from UniProt P10417) BCL2 AAA MEFs, starved	stronger	
BCL2 (from UniProt P10417) BCL2 AAA muscle, exercised		stronger
